Test results from patent publication CN102875678A (WUXI PROGRAMMED ARTIFICIAL MOLECULAR EVOLUTION CO LTD, dated 2013).
Values belong to the molecule of their own block, whether it stands above or below them.

How the values were obtained:
[1] = molecular target: hCD20 on B cell lines (Ramos, DHL-4, Daudi, Raji) (human) (UniProt P11836); assay: cell-based or functional assay
[2] = molecular target: T1, 重组人CD20蛋白 (human, UniProt P11836 1-297, limits assumed); assay: Friguet method, full-length antibody and human CD20
T1 construct: also called hCD20
T1 sequence (looked up): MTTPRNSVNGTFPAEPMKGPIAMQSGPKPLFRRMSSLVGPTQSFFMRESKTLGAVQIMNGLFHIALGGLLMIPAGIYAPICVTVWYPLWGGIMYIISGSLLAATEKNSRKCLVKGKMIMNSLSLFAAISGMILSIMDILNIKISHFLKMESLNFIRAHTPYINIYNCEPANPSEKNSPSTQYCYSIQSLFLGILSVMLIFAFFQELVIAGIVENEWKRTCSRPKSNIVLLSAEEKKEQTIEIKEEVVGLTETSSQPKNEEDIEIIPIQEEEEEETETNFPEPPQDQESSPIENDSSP

[3] = molecular target: 重组人CD20蛋白 (human) (UniProt P11836); assay: as above
[4] = molecular target: 重组人CD20蛋白 (human) (UniProt P11836); assay: Friguet method, Fab and human CD20 in solution, ELISA on immobilised human CD20

- ADCC靶细胞裂解 (Raji细胞, MNC效应细胞, 51Cr释放) [1]: 35%
- CDC细胞裂解比例 (Daudi和Raji细胞, 10μg/ml抗体, 人血清) [1]: > 80%
- Kd [2]: 0.121 nM
Molecule: 2F2 (即HuMax-CD20), full length (antibody)

- Kd [3]: 3.51 nM
Molecule: C2B8 (即Rituxan), full length (antibody)

- Kd [4]: 1.83 nM
Molecule: C2B8 Fab

- Kd [2]: 0.037 nM
B1: 全长8G3 (F8G3) (antibody)
chain 1: EVQLVESGGGLVQPGESLRLSCAGSGFTFNDYAMHWVRQMPGKGLEWVSTIYPW
chain 2: EIVLTQSPATLSLSPGERATLSCRASQFVGFYIHWYQQKPGQAPRLLIYAASERATGVPSRFSGSGSGTDFTLTISSLEPEDFAVYYCQQWLNNPFTFGQGTRLEII
